Measurements from publication PMC5339707, “ACCORD: an assessment tool to determine the orientation of homodimeric coiled-coils” (Scientific Reports, 2017).
Several values for one entry are separate records, joined by “and”; a condition that tells them apart may be missing. Equal entries are not always repeated. Where two headings read alike, the source gives them in different places.

Key:
[1] = target: His6-SspB-TPM1 (1-98) fusion protein (E. coli | G. gallus) (UniProt P0AFZ3); test: SEC-MALS; self-association of His6-SspB-CCD fusion proteins (ACCORD); Superdex 200 10/300 GL, 50 mM Tris pH 8.0, 0.5 mM TCEP, 200 mM NaCl; sample 3-5 mg/ml, 0.5 ml
[2] = target: His6-SspB-Mfn1 (660-735) fusion protein (E. coli | M. musculus) (UniProt P0AFZ3); test: as above
[3] = target: the molecule itself; test: as above
[4] = target: the molecule itself; test: as above; remark: listed apart in the source
[5] = target: the molecule itself; test: crystal structure; MBP-MDV1 fusion protein, hanging drop, 295 K, 100 mM sodium acetate pH 4.5, 25% PEG 3350, 100 mM CaCl2, 1.3-1.7 M sodium formate; molecular replacement
[6] = target: the molecule itself; test: SAXS; MBP fusion proteins in 50 mM Tris pH 8.0, 0.5 mM TCEP, 100 mM NaCl; MBP-NDP52 2.6 mg/ml, MBP-MDV1 9.8 mg/ml; ab initio molecular envelope

His6-SspB-TPM1 (1-98) fusion protein (from UniProt P0AFZ3 1-165; P04268 1-98)
stoichiometry N [1]: 2

His6-SspB-Mfn1 (660-735) fusion protein (from UniProt P0AFZ3 1-165; Q811U4 660-735)
stoichiometry N [2]: 4

B1: His6-SspB-MDV1 (231-300) fusion protein (other, E. coli | S. cerevisiae, UniProt P0AFZ3 1-165, looked up)
chain: MDLSQLTPRRPYLLRAFYEWLLDNQLTPHLVVDVTLPGVQVPMEYARDGQIVLNIAPRAVGNLELANDEVRFNARFGGIPRQVSVPLAAVLAIYARENGAGTMFEPEAAYDEDTSIMNDEEASADNETVMSVIDGDKPDHDDDTHPDDEPPQPPRGGRPALRVVKQTLVNSLEFLNIQKNSTLSEIRDIEVEVENLRQKKEKLLGKIANIEQNQLLLEDNLKQIDDRLDFLEEYG
notes: Stringent starvation protein B (SspB), E. coli, full length, residues 1-165 (M1-K165), amplified from genomic DNA; Mitochondrial division protein 1 (MDV1), S. cerevisiae, coiled-coil domain, residues 231-300 (Q231-G300); Seen as a tetramer (main fraction) and a dimer (significant proportion); source: E. coli BL21(DE3), purified (HisTrap, Superdex 200); not shown: His6, N-terminal, kept
stoichiometry N [3]: 4 and 2

B2: His6-SspB-TRIM25 (194-356) fusion protein (other, E. coli | H. sapiens, UniProt P0AFZ3 1-165, looked up)
chain: MDLSQLTPRRPYLLRAFYEWLLDNQLTPHLVVDVTLPGVQVPMEYARDGQIVLNIAPRAVGNLELANDEVRFNARFGGIPRQVSVPLAAVLAIYARENGAGTMFEPEAAYDEDTSIMNDEEASADNETVMSVIDGDKPDHDDDTHPDDEPPQPPRGGRPALRVVKASADLEATLRHKLTVMYSQINGASRALDDVRNRQQDVRMTANRKVEQLQQEYTEMKALLDASETTSTRKIKEEEKRVNSKFDTIYQILLKKKSEIQTLKEEIEQSLTKRDEFEFLEKASKLRGISTKPVYIPEVELNHKLIKGIHQSTIDLKNELKQCIGRLQ
notes: Stringent starvation protein B (SspB), E. coli, full length, residues 1-165 (M1-K165), amplified from genomic DNA; source: E. coli BL21(DE3), purified (HisTrap, Superdex 200); not shown: His6, N-terminal, kept
stoichiometry N [3]: 4

B3: His6-SspB-NDP52 (141-334) fusion protein (other, E. coli | H. sapiens, UniProt P0AFZ3 1-165, looked up)
chain: MDLSQLTPRRPYLLRAFYEWLLDNQLTPHLVVDVTLPGVQVPMEYARDGQIVLNIAPRAVGNLELANDEVRFNARFGGIPRQVSVPLAAVLAIYARENGAGTMFEPEAAYDEDTSIMNDEEASADNETVMSVIDGDKPDHDDDTHPDDEPPQPPRGGRPALRVVKEVEEIEQHNKELCKENQELKDSCISLQKQNSDMQAELQKKQEELETLQSINKKLELKVKEQKDYWETELLQLKEQNQKMSSENEKMGIRVDQLQAQLSTQEKEMEKLVQGDQDKTEQLEQLKKENDHLFLSLTEQRKDQKKLEQTVEQMKQNETTAMKKQQELMDENFDLSKRLSENEIICNALQRQKERLEGE
notes: as for B2
stoichiometry N [3]: 2

B4: His6-SspB-MYO10 (883-933) fusion protein (other, E. coli | human, UniProt P0AFZ3 1-165, looked up)
chain: MDLSQLTPRRPYLLRAFYEWLLDNQLTPHLVVDVTLPGVQVPMEYARDGQIVLNIAPRAVGNLELANDEVRFNARFGGIPRQVSVPLAAVLAIYARENGAGTMFEPEAAYDEDTSIMNDEEASADNETVMSVIDGDKPDHDDDTHPDDEPPQPPRGGRPALRVVKENKQVEEILRLEKEIEDLQRMKEQQELSLTEASLQKLQERRDQELRRLEEE
notes: Stringent starvation protein B (SspB), E. coli, full length, residues 1-165 (M1-K165), amplified from genomic DNA; also called human MYO10 CC; source: E. coli BL21(DE3), purified (HisTrap, Superdex 200)
stoichiometry N [4]: 2

B5: MBP-MDV1 (231-300) fusion protein (domain or fragment, S. cerevisiae, UniProt P47025 231-300, looked up)
chain: QTLVNSLEFLNIQKNSTLSEIRDIEVEVENLRQKKEKLLGKIANIEQNQLLLEDNLKQIDDRLDFLEEYG
notes: Mitochondrial division protein 1 (MDV1), S. cerevisiae, coiled-coil domain, residues 231-300; Modified pMAL vector; the whole chain is in PDB 5JST; source: E. coli BL21(DE3), purified (amylose resin, Q-FF, Superdex 200)
binding result [5]: binds

B6: MBP-NDP52 (197-270) fusion protein (domain or fragment, H. sapiens, UniProt Q13137 197-270, looked up)
chain: KVKEQKDYWETELLQLKEQNQKMSSENEKMGIRVDQLQAQLSTQEKEMEKLVQGDQDKTEQLEQLKKENDHLFL
notes: Modified pMAL vector; source: E. coli BL21(DE3), purified (amylose resin, Q-FF, Superdex 200)
binding result [6]: binds

B7: His6-SspB-APC (2-55) fusion protein (other, E. coli | H. sapiens, UniProt P0AFZ3 1-165, looked up)
chain: MDLSQLTPRRPYLLRAFYEWLLDNQLTPHLVVDVTLPGVQVPMEYARDGQIVLNIAPRAVGNLELANDEVRFNARFGGIPRQVSVPLAAVLAIYARENGAGTMFEPEAAYDEDTSIMNDEEASADNETVMSVIDGDKPDHDDDTHPDDEPPQPPRGGRPALRVVKAAASYDQLLKQVEALKMENSNLRQELEDNSNHLTKLETEASNMKEVLKQLQGSI
notes: Stringent starvation protein B (SspB), E. coli, full length, residues 1-165 (M1-K165), amplified from genomic DNA; Adenomatous polyposis coli protein (APC), human, coiled-coil domain, residues 2-55 (A2-I55); CCD ligated behind SspB in the His6-SspB vector (BamHI at the 5' end); vector holds TEV and thrombin cleavage sites; source: E. coli BL21(DE3), purified (HisTrap, Superdex 200); not shown: …
stoichiometry N [3]: 2

B8: His6-SspB-Atg16 (58-130) fusion protein (other, E. coli | S. cerevisiae, UniProt P0AFZ3 1-165, looked up)
chain: MDLSQLTPRRPYLLRAFYEWLLDNQLTPHLVVDVTLPGVQVPMEYARDGQIVLNIAPRAVGNLELANDEVRFNARFGGIPRQVSVPLAAVLAIYARENGAGTMFEPEAAYDEDTSIMNDEEASADNETVMSVIDGDKPDHDDDTHPDDEPPQPPRGGRPALRVVKVSHDDALLNTLAILQKELKSKEQEIRRLKEVIALKNKNTERLNDELISGTIENNVLQQKLSDLKKEHSQLVAR
notes: Stringent starvation protein B (SspB), E. coli, full length, residues 1-165 (M1-K165), amplified from genomic DNA; Autophagy protein 16 (Atg16), S. cerevisiae, coiled-coil domain, residues 58-130 (V58-R130); source: E. coli BL21(DE3), purified (HisTrap, Superdex 200); not shown: His6, N-terminal, kept
stoichiometry N [3]: 2

B9: His6-SspB-SCOC (78-159) fusion protein (other, E. coli | H. sapiens, UniProt P0AFZ3 1-165, looked up)
chain: MDLSQLTPRRPYLLRAFYEWLLDNQLTPHLVVDVTLPGVQVPMEYARDGQIVLNIAPRAVGNLELANDEVRFNARFGGIPRQVSVPLAAVLAIYARENGAGTMFEPEAAYDEDTSIMNDEEASADNETVMSVIDGDKPDHDDDTHPDDEPPQPPRGGRPALRVVKMMNADMDAVDAENQVELEEKTRLINQVLELQHTLEDLSARVDAVKEENLKLKSENQVLGQYIENLMSASSVFQTTDTKSKRK
notes: Stringent starvation protein B (SspB), E. coli, full length, residues 1-165 (M1-K165), amplified from genomic DNA; Short coiled-coil protein (SCOC), human, coiled-coil domain, residues 78-159 (M78-K159); CCD ligated behind SspB in the His6-SspB vector (BamHI at the 5' end); vector holds TEV and thrombin cleavage sites; source: E. coli BL21(DE3), purified (HisTrap, Superdex 200); not shown: His6, …
stoichiometry N [3]: 2

B10: His6-SspB-LRRFIP1 (162-249) fusion protein (other, E. coli | H. sapiens, UniProt P0AFZ3 1-165, looked up)
chain: MDLSQLTPRRPYLLRAFYEWLLDNQLTPHLVVDVTLPGVQVPMEYARDGQIVLNIAPRAVGNLELANDEVRFNARFGGIPRQVSVPLAAVLAIYARENGAGTMFEPEAAYDEDTSIMNDEEASADNETVMSVIDGDKPDHDDDTHPDDEPPQPPRGGRPALRVVKDSLAEVEEKYKKAMVSNAQLDNEKTNFMYQVDTLKDMLLELEEQLAESRRQYEEKNKEFEREKHAHSILQFQFAEVKEALKQREEMLE
notes: Stringent starvation protein B (SspB), E. coli, full length, residues 1-165 (M1-K165), amplified from genomic DNA; CCD ligated behind SspB in the His6-SspB vector (BamHI at the 5' end); vector holds TEV and thrombin cleavage sites; source: E. coli BL21(DE3), purified (HisTrap, Superdex 200); not shown: His6, N-terminal, kept
stoichiometry N [3]: 2

B11: His6-SspB-Ndel1 (8-99) fusion protein (other, E. coli | R. norvegicus, UniProt P0AFZ3 1-165, looked up)
chain: MDLSQLTPRRPYLLRAFYEWLLDNQLTPHLVVDVTLPGVQVPMEYARDGQIVLNIAPRAVGNLELANDEVRFNARFGGIPRQVSVPLAAVLAIYARENGAGTMFEPEAAYDEDTSIMNDEEASADNETVMSVIDGDKPDHDDDTHPDDEPPQPPRGGRPALRVVKDFSSLKEETAYWKELSLKYKQSFQEARDELVEFQEGSRELEAELEAQLVQAEQRNRDLQADNQRLKYEVEALKEKLEHQYAQSYKQVSVLED
notes: Stringent starvation protein B (SspB), E. coli, full length, residues 1-165 (M1-K165), amplified from genomic DNA; Major peak a dimer; source: E. coli BL21(DE3), purified (HisTrap, Superdex 200); not shown: His6, N-terminal, kept
stoichiometry N [3]: 2

B12: His6-SspB-ROCK1 (535-709) fusion protein (other, E. coli | H. sapiens, UniProt P0AFZ3 1-165, looked up)
chain: MDLSQLTPRRPYLLRAFYEWLLDNQLTPHLVVDVTLPGVQVPMEYARDGQIVLNIAPRAVGNLELANDEVRFNARFGGIPRQVSVPLAAVLAIYARENGAGTMFEPEAAYDEDTSIMNDEEASADNETVMSVIDGDKPDHDDDTHPDDEPPQPPRGGRPALRVVKLANEKLSQLQKQLEEANDLLRTESDTAVRLRKSHTEMSKSISQLESLNRELQERNRILENSKSQTDKDYYQLQAILEAERRDRGHDSEMIGDLQARITSLQEEVKHLKHNLEKVEGERKEAQDMLNHSEKEKNNLEIDLNYKLKSLQQRLEQEVNEHKVTKARLTDKHQSIEEAK
notes: Stringent starvation protein B (SspB), E. coli, full length, residues 1-165 (M1-K165), amplified from genomic DNA; Rho-associated coiled-coil containing protein kinase 1 (ROCK1), human, coiled-coil domain, residues 535-709 (L535-K709); CCD ligated behind SspB in the His6-SspB vector (BamHI at the 5' end); vector holds TEV and thrombin cleavage sites; source: E. coli BL21(DE3), purified (HisTrap, …)
stoichiometry N [3]: 2
